According to patent publication US20040162467A1, “Non-invasive transudate extraction” (priority 2001, published 2004):

Assays:
[1] = Procalcitonin/TNF alpha and IL 6 (measure of bacterial sepsis): serum versus transdermal; format: in vivo
[2] = Serum, transdermal and saliva samples from human subjects before, during and after exercise; conditions: for Exudate: transdermal
Protocol: (§1) Sodium lauryl sulfate (40%) and either a commercial ultrasound conductive gel (Aquasonic, Parker Lab., NJ 07004, USA) or a 10% ethanol gel (the two gels were alternated in use) are employed. These gels are designated SLS-UG and SLS-EG respectively herein. Collected SLS-UG and SLS-EG are assayed as for blood. Saliva was divided into two samples. The first sample is stored at −20° C. and assayed as for blood. The second sample is assayed at the time of experimentation using the apparatus and immunosensors described above.
(§2) Student t tests, ANOVA or Wilcoxon test for paired samples are made as appropriate. Statistical significance is taken at P≦0.05 level. For analysis across the exercise stress, data is grouped into pre, during and post exercise values as actual sample times relative to the exercise for transdermal and blood obtained values. For pre, during and post exercise grouping of saliva samples, a 20-min lag was allowed relative to blood and transdermal values in sheep and a 30-min lag in human subjects.
Ten human volunteers (males aged 19-23, body weights 85-103 kg) were seated at 09:30 h. During the experiment, they were held at a room temperature of 20-22° C. An initial 1 min burst of ultrasound, as for the sheep (above), was made on the volar surface of the forearm, following application of SLS-EG mix. Ten minutes later, transdermal (electrosonophoresis) collection began from this site on this forearm, simultaneous to a venepuncture blood collection being made from the other. A saliva collection was then made, followed by a second, third and fourth saliva collection 20, 30 and 40 min after the blood sample. These measurements were repeated three times over 3 h (i.e. a total of three blood and transdermal samples and 12 saliva samples). In between each sampling series, subjects were allowed to walk around, eat lightly and drink water. Following this collection, the five volunteers exercised at moderate intensities, for 40 min (heart rates maintained in the range of 130-160 bpm) on a rowing machine, stopping briefly at 10, 20 and 30 min to give blood, transdermal and saliva samples. The subjects gave another set of samples at 40 min upon completion of rowing, then warmed down lightly with stretching exercises for a further 10 min and gave a further saliva sample at the end of this time. Two more saliva samples were collected at 60 and 70 min after exercise started. At the end of this time, sampling was repeated as above, prior to exercise, for a further 3 h. The entire procedure was repeated twice a week for 3 weeks (a total of six times). The distance rowed (m) represented the total work rate during the exercise.

[3] = Serum, transdermal and saliva samples from sheep before, during and after exercise; conditions: for Exudate: transdermal
Protocol: as §1, §2
In the remaining 10 sheep, experimentation took place on three separate days, each 3 days apart. On days of experimentation, animals were penned as above and the jugular vein of the animal was catheterised. Animals were left to rest for 50 min and then a single ultrasound application applied for 1 min as above. […] A series of electrosonophoresis collections were made concurrently with blood collection from the jugular vein, every 5 min for a further 1 h. Saliva samples were collected on every second blood sample (i.e. every 10 min). At completion of this time, a human shepherd, intermittently for 30 min, then ran the animals around a paddock. During this 30 min, each animal was briefly restrained manually and sampled on all three parameters every 10 min (i.e. three samples repeated three times). At the end of this period, animals were repenned and rested for 10 min, and a further saliva collection was made. Following this saliva collection for a further 1-h period, collection as above, prior to exercise, was repeated. In this manner for each animal, in each session, 27 blood and transdermal samples and 16 saliva samples were collected.

[4] = Concentrations in transdermal exudate collected by different formats from sheep, versus serum; conditions: sheep
Protocol: as §1
Ten of these animals were used to develop the transdermal exudate collection technique. These 10 animals were penned as above, and a catheter inserted into the jugular vein using known techniques in the art. A mixture of sodium lauryl sulfate and either SLS-UG or SLS-EG was positioned onto the shaved area on the back of each animal. […] At the end of the hour, the remaining mix on the back was collected. The entire procedure was repeated three times. This mix was subject to assay (see below) for hormones and glucose content.
On the following day, one of the two gel mixes were rubbed on and, after 10 min, ultrasound (20 kHz, 10 W/cm^2, pulsed 5 s on/5 s off using an ITO Physiotherapy and rehabilitation unit, Tokyo 176-8605, Japan) applied for 1 min directly onto the mix. Ten minutes later, the mix was again collected and measured. This was then repeated with 2 min of the ultrasound application, and on a following day, the entire procedure repeated using the alternative gel mix on the shaved patch on the animal. Times greater than 2 min were not attempted due to potential risk of skin damage. Blood samples were collected at the time of ultrasound application and again at the time when the gel mix was also collected. The entire ultrasound procedure was then repeated on subsequent days with the addition of an application of a 9V electric field either side of the ultrasound head (in contact with skin).
On a separate day, in a further repeat of the above procedure; the collecting head (50) was positioned onto the ultrasound device. The ultrasound device was modified to ensure good coupling for use with the collecting head and delivery of needed parameters to the skin. The output of the device was reset to achieve the same energy and pulse delivery to the skin's surface as when the collecting head was not present, and the ultrasound device had been placed directly in contact with the gels (as described above). Three fluid flow rates into the collection chamber of the head were compared: 150, 300 and 600 μl/min. The effluent fluid was then assayed. On a final day, this was then repeated with the immunosensors positioned in the exit line from the chamber, with immunosensor measurement of the hormones made as has been described above.

[5] = Other analytes: transdermal collection levels versus serum levels
[6] = SLS + 10% E + US 1 min + 9 V + Collection Head
[7] = first group of subjects (no condition given)
[8] = second group: females pregnant and lactating

IL 6: measure of bacterial sepsis
Serum ([1]; subject number 20): 0.3 to 11.5 ng/mL | Transdermal ([1]; subject number 20): 0.04 to 1.2 ng/mL | Serum ([1]; subject number 30): 0.1 to 0.3 ng/mL | Transdermal ([1]; subject number 30): 0.03 to 0.05 ng/mL

Insulin: endogenous hormone analyte measured in serum and exudate
Serum ([2]; 0 min Exercise): 13.1 ± 3.0 μIU/ml | Exudate ([2]; 10 min Exercise): 0.90 ± 0.28 μIU/ml | Serum ([2]; 20 min Exercise): 6.3 ± 3.8 μIU/ml | Serum ([2]; 30 min Exercise): 5.4 ± 4.1 μIU/ml | Exudate ([2]; 30 min Exercise): 0.46 ± 0.21 μIU/ml | Exudate ([2]; 40 min Exercise): 0.57 ± 0.33 μIU/ml | Serum ([2]; Postexercise): 14.1 ± 5.5 μIU/ml | Exudate ([2]; Postexercise): 1.15 ± 0.48 μIU/ml | Exudate ([2]; Preexercise): 1.35 ± 0.90 μIU/ml | Serum ([3]; 10 min Exercise): 0.21 ± 0.07 ng/L | Serum ([3]; 20 min Exercise): 0.12 ± 0.05 ng/L | Exudate ([3]; 20 min Exercise): 0.009 ± 0.003 ng/L | Exudate ([3]; 30 min Exercise): 0.008 ± 0.004 ng/L | Serum ([3]; Postexercise): 0.19 ± 0.08 ng/L | Exudate ([3]; Postexercise): 0.014 ± 0.008 ng/L | Exudate ([3]; Preexercise): 0.029 ± 0.009 ng/L | Serum ([4]; SLS + 10% E): 0.18 ± 0.09 ng/mL | Exudate ([4]; SLS + 10% E + US 1 min): 0.0004 ± 0.002 ng/mL | Serum ([4]; SLS + 10% E + US 1 min): 0.4 ± 0.15 ng/mL | Exudate ([4]; SLS + 10% E + US 1 min + 9 V): 0.0064 ± 0.0041 ng/mL | Serum ([4]; SLS + 10% E + US 1 min + 9 V): 0.21 ± 0.08 ng/mL | Exudate [4, 6]: 0.013 ± 0.006 ng/mL | Serum [4, 6]: 0.19 ± 0.11 ng/mL | Serum ([4]; SLS + UG): 0.2 ± 0.6 ng/mL | Recovery as % of serum levels ([4]; gel mix with addition of ultrasound application): 2%

TNF alpha
TNF alpha Trandermal ([1]; subject number 20): 0.5 to 12 ng/mL | Transdermal ([1]; subject number 20): 0.03 to 1.4 ng/mL | TNF alpha Trandermal ([1]; subject number 30): 0.1 to 0.5 ng/mL | Transdermal ([1]; subject number 30): 0.005 to 0.01 ng/mL

B1: Prolactin: endogenous hormone analyte (protein, UniProt P01236 29-227, looked up)
Prolactin: LPICPGGAARCQVTLRDLFDRAVVLSHYIHNLSSEMFSEFDKRYTHGRGFITKAINSCHTSSLATPEDKEQAQQMNQKDFLSLIVSILRSWNEPLYHLVTEVRGMQEAPEAILSKAVEIEEQTKRLLEGMELIVSQVHPETKENEIYPVWSGLPSLQMADEESRLSAYYNLLHCLRRDSHKIDNYLKLLKCRIIHNNNC
Serum levels [5, 7]: 1 to 8 ng/mL | Transdermal collection levels [5, 7]: 0.02 to 0.8 ng/mL | Serum levels [5, 8]: 4-100 ng/ml females | Transdermal collection levels [5, 8]: 0.4 to 10 ng/mL

B2: Procalcitonin: measure of bacterial sepsis (protein, UniProt P01258 26-141, looked up)
pro-form: APFRSALESSPADPATLSEDEARLLLAALVQDYVQMKASELEQEQEREGSSLDSPRSKRCGNLSTCMLGTYTQDFNKFHTFPQTAIGVGAPGKKRDMSSDLERDHRPHVSMPQNAN
modifications: pro-form
notes: measure of bacterial sepsis
Serum ([1]; subject number 20): 0.5 to 15 ng/mL | Transdermal ([1]; subject number 20): 0.04 to 1.7 ng/mL | Serum ([1]; subject number 30): 0.1 to 0.5 ng/mL | Transdermal ([1]; subject number 30): 0.02 to 0.05 ng/mL
